Measurements taken from patent US20070036789A1 (NATIONAL CANCER CENTER, published 2007).

T1: phage containing the peptide of SEQ ID NO: 32
T1 construct: The phage coat fusion is not described
T1 peptide: HHPHFKPVSNSR

T2: phage containing the peptide of SEQ ID NO: 33
T2 construct: The phage coat fusion is not described
T2 peptide: KSLSRHDHIHHH


How the values were obtained:
[1] = target: T1, phage containing the peptide of SEQ ID …; test: phage peptide library panned on the coated Fab, clones selected by EIA
Protocol: (§1) A 96-well plate (costar No. 3690) was coated with anti-HGF H61 Fab or anti-HGF H68 Fab dissolved in 25 μl of TBS solution at a concentration of 10 μg/ml per well. PHD peptide library (phage display of combinatorial peptide library) (new England Biolob.) was added to the well plate, and then, the well plate was kept for 2 hrs at room temperature. The well plate was washed with 0.5% (v/v) Tween 20 in PBS and eluted with 0.1 M HCl-glycine (pH 2.2). The washing steps were increased from 5 times in the first round to 10 times in the second round and 15 times in the subsequent rounds. Typically seven rounds of panning were carried out. After the last round of panning, the phage clones containing anti-HGF H61 Fab or anti-HGF H68 Fab were selected by EIA using anti-HGF H61 Fab or anti-HGF H68 Fab-coated ELISA plate and horseradish peroxidase-conjugated anti-M13 phage goat monoclonal antibody (Roche). The selected clones were subjected to nucleotide sequencing and the amino acid sequences were determined from the analyzed nucleotide sequences.
(§2) Nucleotide sequencing was performed according to the dye-labeled primer sequencing method (Chung et al., supra) using a sequencing primer of SEQ ID NO: 31. As a result, peptides encoding anti-HGF H61 and H68 Fabs deduced from the analyzed nucleotide sequences had the amino acid sequences of SEQ ID NOs: 32 and 33, respectively.

[2] = target: T2, phage containing the peptide of SEQ ID …; test: as above
Protocol: as §1, §2

c-Met = target: T3, c-Met (UniProt P08581 25-932, limits assumed); test: SPR, c-Met on CM5 chip, Fab injected alone
T3 construct: also called HGF receptor
T3 sequence (P08581 25-932 limits assumed): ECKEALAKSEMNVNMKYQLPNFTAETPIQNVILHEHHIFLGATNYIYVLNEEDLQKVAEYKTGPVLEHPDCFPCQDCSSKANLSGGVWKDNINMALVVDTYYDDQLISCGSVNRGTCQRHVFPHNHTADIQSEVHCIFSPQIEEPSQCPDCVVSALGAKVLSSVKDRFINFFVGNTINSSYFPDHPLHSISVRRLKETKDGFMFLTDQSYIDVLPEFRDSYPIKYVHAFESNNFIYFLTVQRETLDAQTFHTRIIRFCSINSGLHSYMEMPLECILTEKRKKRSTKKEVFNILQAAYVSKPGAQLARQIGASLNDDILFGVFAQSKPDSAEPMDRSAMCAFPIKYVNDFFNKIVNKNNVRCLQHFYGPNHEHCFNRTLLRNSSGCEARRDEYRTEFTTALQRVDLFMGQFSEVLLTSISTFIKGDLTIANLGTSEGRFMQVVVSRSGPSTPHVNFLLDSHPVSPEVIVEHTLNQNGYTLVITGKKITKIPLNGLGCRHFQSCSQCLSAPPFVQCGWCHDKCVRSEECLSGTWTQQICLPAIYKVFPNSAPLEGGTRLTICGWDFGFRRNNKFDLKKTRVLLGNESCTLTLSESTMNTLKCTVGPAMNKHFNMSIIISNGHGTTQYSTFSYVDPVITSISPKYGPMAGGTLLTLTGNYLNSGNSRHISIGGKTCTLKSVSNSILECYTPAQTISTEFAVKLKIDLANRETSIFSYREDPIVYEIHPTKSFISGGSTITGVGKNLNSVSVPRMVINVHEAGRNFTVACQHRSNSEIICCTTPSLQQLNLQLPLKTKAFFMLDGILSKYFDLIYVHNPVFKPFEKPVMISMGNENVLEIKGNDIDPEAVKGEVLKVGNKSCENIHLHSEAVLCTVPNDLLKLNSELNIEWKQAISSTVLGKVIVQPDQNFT
Protocol: To ascertain the fact that anti-HGF H68 Fab can inhibit the binding of HGF to c-Met in real time, c-Met was coupled to CM5 sensor chip through an amine coupling method. Thereafter, HGF alone was injected at a concentration of 50 nM, and premixed with anti-HGF H68 Fab of 5 different concentrations (50 nM, 250 nM, 500 nM, 1 μM and 1.5 μM) and soluble c-Met of 5 different concentrations (50 nM, 100 nM, 200 nM, 400 nM, 600 nM), respectively. Binding interaction was allowed to proceed in PBS buffer containing 0.005% surfactant P20 at a flow rate of 30 μl/min at 25° C. The surface was regenerated with 1 M NaCl/50 mM NaOH.
There was no binding of HGF in case when anti-HGF H68 Fab alone was injected.

| Binder | binding result [1] | binding result [2] | binding result (c-Met) |
| --- | --- | --- | --- |
| anti-HGF H61 Fab (Fab, V domains shown, Rabbit/human chimeric Fab: rabbit VH and VL joined to human CH1 and Ckappa from pComb3X; purified through its HA tag; also called clone 61; clone 61 Fab) VH: QEQLMESGGRLVNPGESLTLTCKASGFTFSSYYMSWVRQAPGKGLEWIGYIGTSSGTTYYANSVKGRFTISSDNAQNTVFLRMTSLTDSDTATYFCARGLGRINLWGPGTLVTVSS VL: ELVLTQTPSSMSAAVGGTVTINCQASQSVSNYLAWYQQKPGQPPKLLIYRASTLASGVPSRFSGSGSGTEFTLTISGMKAEDAATYYCQSGYYSAGATFGGGTNVEIKR | binds |  |  |
| anti-HGF H68 Fab (Fab, V domains shown, Rabbit/human chimeric Fab: rabbit VH and VL joined to human CH1 and Ckappa from pComb3X; purified through its HA tag; also called clone 68; clone 68 antibody) VH: QQQLVESGGRLVNPGESLTLTCKASGFTFSTYYMSWVRQAPGKGLEWIGYIGTSSGTTYYANSVKGRFTISSDNAQNTVFLQMTSLTDSDTATYFCARGLGRINLWGPGTLVTVSS VL: ELDLTQTPSSVSAAVGGTVTINCQASQSVSNLLAWYQQKPGQPPKLLIYGASNLESGVPSRFRGSGSGTEFTLTISGMKAEDAATYYCQSGYYSAGATFGAGTNVEIKR | binds | binds | no binding |
